B1: SERPINB5 (parent)
chain: FPESETKECPFRVNKVCGAACSSK
B2: TRIM43 (parent)
chain: YQEIFQQLQRSWVKMDQKSKHLKE

Variants of: B1
Assay: protein stability index of a GFP-peptide fusion (GPS, HEK-293T) (PSI 1-6); higher = more stable
Details: c terminus: a fixed tail appended
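Note: lentivirally expressed fusions sorted by FACS into six bins by GFP to DsRed ratio, PSI derived from sequencing read proportions per bin multiplied by bin number.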

Protein stability index of substitutions, site by site:
N14: R 2.17 | S 2.45 | T 2.5 | V 2.08 | W 2.4 | Y 2.19
K15: A 3.17 | C 3.04 | D 3.01 | E 2.83 | F 2.12 | G 2.22 | H 4.17 | I 2.12 | L 2.61 | M 2.38 | N 2.24 | P 2.58 | Q 2.52 | R 2.76 | S 2.32 | T 2.48 | V 2.1 | W 1.32 | Y 2.4
V16: A 3.03 | C 2.24 | D 2.89 | E 3.12 | F 2.57 | G 2.9 | H 2.17 | I 2.04 | K 2.61 | L 1.86 | M 2.18 | N 2.82 | P 2.11 | Q 2.67 | R 2.8 | S 2.28 | T 2.71 | W 2.49 | Y 2.14
C17: A 3.29 | D 2.81 | E 2.98 | F 2.79 | G 2.91 | H 2.45 | I 3.16 | K 3.12 | L 2.47 | M 2.49 | N 2.99 | P 2.29 | Q 2.4 | R 2.48 | S 3.13 | T 2.68 | V 2.88 | W 1.76 | Y 2.51
G18: A 2.65 | C 2.54 | D 2.89 | E 2.6 | F 2.09 | H 2.59 | I 2.1 | K 3.24 | L 2.05 | M 2.56 | N 2.59 | P 2.42 | Q 2.66 | R 2.43 | S 3.42 | T 2.35 | V 1.75 | W 3.39 | Y 2.09
A19: D 3.03 | E 2.5 | F 2.02 | G 2.81 | H 2.51 | I 2.63 | K 2.51 | L 2.96 | M 2.36 | N 2.61 | P 2.08 | Q 2.7 | R 2.52 | S 2.92 | T 2.62 | V 2.41 | W 2.08 | Y 2.29
A20: C 2.17 | D 2.69 | E 2.84 | F 1.95 | G 3.22 | H 2.58 | I 2.32 | K 2.26 | L 2.79 | M 2.01 | N 3.18 | P 2.49 | Q 2.09 | R 2.53 | S 2.29 | T 3.22 | V 2.67 | W 1.94 | Y 2.27
C21: A 2.76 | D 2.81 | E 3.19 | F 1.94 | G 2.69 | H 2.44 | I 2.04 | K 3.19 | L 2.2 | M 2.35 | N 2.44 | P 2.23 | Q 2.22 | R 2.56 | S 2.9 | T 2.62 | V 2.56 | W 1.38 | Y 2.51
S22: A 3.52 | C 2.27 | D 2.66 | E 2.57 | F 1.66 | G 3.07 | H 2.55 | I 2.27 | K 2.39 | L 1.93 | M 2.4 | N 2.62 | P 2.67 | Q 2.66 | R 2.36 | T 2.39 | V 2.1 | W 2.03 | Y 2.46
S23: A 2.41 | C 2.66 | D 2.78 | E 3.16 | F 2.23 | G 2.4 | H 3.33 | I 2.26 | K 2.97 | L 2.4 | M 2.39 | N 2.96 | P 2.39 | Q 2.35 | R 2.02 | T 2.19 | V 2.42 | W 1.93 | Y 2.29
K24: A 2.42 | C 3.31 | D 2.94 | E 2.96 | F 2.02 | G 2.57 | H 2.81 | I 1.88 | L 2.13 | M 2 | N 1.89 | P 2.21 | Q 2.45 | R 2.05 | S 2.25 | T 2.48 | V 2.17 | W 1.46 | Y 2.25

Variants of: B2
Assay: as above
Details: c terminus: a fixed tail appended

Protein stability index of substitutions, site by site:
Y1: A 1.86 | C 1.56 | D 4.53 | E 4.08 | F 1.58 | G 3.82 | H 3.7 | I 2.04 | K 3.46 | L 1.5 | M 1.99 | N 3.73 | P 3.04 | Q 3.35 | R 2.96 | S 3.7 | T 2.88 | V 1.29 | W 3.04
Q2: A 1.84 | C 2.36 | D 2.64 | E 3.44 | F 1.55 | G 1.66 | H 1.58 | I 1.52 | K 2.19 | L 1.67 | M 1.82 | N 2.14 | P 2.15 | R 1.56 | S 1.22 | T 2.18 | V 1.72 | W 2.3 | Y 1.72
E3: A 2.23 | C 2.13 | D 2.18 | F 1.53 | G 1.35 | H 2.47 | I 2.29 | K 1.76 | L 1.79 | M 2.13 | N 1.58 | P 1.69 | Q 1.63 | R 3.7 | S 2.11 | T 1.52 | V 1.93 | W 1.68 | Y 2.39
I4: A 1.98 | C 1.44 | D 1.47 | E 1.78 | F 1.8 | G 1.01 | H 1.85 | K 1.87 | L 2.19 | M 1.51 | N 1.61 | P 1.93 | Q 1.85 | R 2.05 | S 1.94 | T 1.96 | V 2.16 | W 2.94 | Y 1.5
F5: A 2.94 | C 2.69 | D 4.05 | E 4.52 | G 3.31 | H 3.65 | I 1.7 | K 3.17 | L 2.65 | M 2.22 | N 3.47 | P 2.79 | Q 3.7 | R 3.15 | S 3.39 | T 3.29 | V 2.82 | W 2.19 | Y 2.57
Q6: A 2.04 | C 2.07 | D 2.74 | E 2.95 | F 1.93 | G 2.52 | H 2.17 | I 2.27 | K 1.85 | L 1.55 | M 2.49 | N 2.21 | P 2.28 | R 2.63 | S 2.19 | T 2.8 | V 1.85 | W 2.03 | Y 2.65
Q7: A 1.87 | C 1.94 | D 2.79 | E 2.52 | F 1.52 | G 2.59 | H 2.42 | I 2.08 | K 1.61 | L 2.11 | M 2.13 | N 2.23 | P 2.28 | R 1.66 | S 2.89 | T 1.82 | V 1.65 | W 3.41 | Y 2.53
L8: A 2.78 | C 2.44 | D 2.71 | E 3.06 | F 2.62 | G 2.74
